Assay results reported in PMC11417369, “DNA sequence and chromatin differentiate sequence-specific transcription factor binding in the human malaria parasite Plasmodium falciparum”.
Where a chain is given by its changes, count along the chain named.

T1: AP2-HC D1 (Plasmodium falciparum, UniProt Q8IKR9 1316-1374)
T1 sequence: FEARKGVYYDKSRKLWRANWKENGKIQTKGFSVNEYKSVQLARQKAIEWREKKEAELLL

B1: CACACA_site8718 (dsDNA)
DNA 1: ATAATTTGTGGACACACACACACACCGACATATATA
DNA 2: TATATATGTCGGTGTGTGTGTGTGTCCACAAATTAT
B2: CACACA_site4189 (dsDNA)
DNA 1: AAAAAAAACGGACACACACACATTCAATATAAAACA
DNA 2: TGTTTTATATTGAATGTGTGTGTGTCCGTTTTTTTT
B3: CACACA_site6373 (dsDNA)
DNA 1: AACATACATAGACACACACACACACGCACACGCACA
DNA 2: TGTGCGTGTGCGTGTGTGTGTGTGTCTATGTATGTT
B4: CACACA_site4909 (dsDNA)
DNA 1: AAAAAATCAAAACACACACACACACTAGAAAAAAAA
DNA 2: TTTTTTTTCTAGTGTGTGTGTGTGTTTTGATTTTTT
B5: CACACA_site1444 (dsDNA)
DNA 1: B4 DNA 1 with T26C, A27C, G28A
DNA 2: B4 DNA 2 with C9T, T10G, A11G
B6: CACACA_site4441 (dsDNA)
DNA 1: CAAATACCCGGACACACACACACAAAAAAAAAAAAA
DNA 2: TTTTTTTTTTTTTGTGTGTGTGTGTCCGGGTATTTG
B7: CACACA_site4435 (dsDNA)
DNA 1: TACACAGACGGACACACACACACACTAGAAAAAAAA
DNA 2: TTTTTTTTCTAGTGTGTGTGTGTGTCCGTCTGTGTA
B8: CACACA_site8770 (dsDNA)
DNA 1: AACAAACACAGACACACACACACACTAATATGATTA
DNA 2: TAATCATATTAGTGTGTGTGTGTGTCTGTGTTTGTT
B9: CACACA_site5428 (dsDNA)
DNA 1: AAAAGATAATTATGCACACACACACCCAGACACAAC
DNA 2: GTTGTGTCTGGGTGTGTGTGTGCATAATTATCTTTT
B10: CACACA_site3306 (dsDNA)
DNA 1: CAACATTTGAAACACACACACATACAAACAAACAAA
DNA 2: TTTGTTTGTTTGTATGTGTGTGTGTTTCAAATGTTG
B11: CACACA_site4465 (dsDNA)
DNA 1: AAATAATATAAATACACACACACATATATAAATACA
DNA 2: TGTATTTATATATGTGTGTGTGTATTTATATTATTT
B12: CACACA_site8023 (dsDNA)
DNA 1: CCTGAACACATACATACACACACACTAATAAAAAAA
DNA 2: TTTTTTTATTAGTGTGTGTGTATGTATGTGTTCAGG
B13: CACACA_site2860 (dsDNA)
DNA 1: AAAAAAAAAAAAAACACACACACACCCATACACATA
DNA 2: TATGTGTATGGGTGTGTGTGTGTTTTTTTTTTTTTT
B14: CACACA_site6714 (dsDNA)
DNA 1: ATAATACACAAGCACACACACACACGGATATTTATA
DNA 2: TATAAATATCCGTGTGTGTGTGTGCTTGTGTATTAT
B15: CACACA_site6334 (dsDNA)
DNA 1: AAAAAAAAAAGACACACACACAAATACAAATACATA
DNA 2: TATGTATTTGTATTTGTGTGTGTGTCTTTTTTTTTT
B16: CACACA_site6643 (dsDNA)
DNA 1: AACATACACATATACACACACACATATATACCTATA
DNA 2: TATAGGTATATATGTGTGTGTGTATATGTGTATGTT
B17: CACACA_site2857 (dsDNA)
DNA 1: AAAAAAAACAGACACACACACATACACATACATACA
DNA 2: TGTATGTATGTGTATGTGTGTGTGTCTGTTTTTTTT
B18: CACACA_site2012 (dsDNA)
DNA 1: AATATGAACAGACACACACACACAAAAAAAAAAAAA
DNA 2: TTTTTTTTTTTTTGTGTGTGTGTGTCTGTTCATATT
B19: CACACA_site5780 (dsDNA)
DNA 1: ATAAATTAAAAACACACACACATCTGGATACCCCTA
DNA 2: TAGGGGTATCCAGATGTGTGTGTGTTTTTAATTTAT
B20: CACACA_site482 (dsDNA)
DNA 1: GAATAATCCAAACACACACACACACCCGAATAAATA
DNA 2: TATTTATTCGGGTGTGTGTGTGTGTTTGGATTATTC
B21: CACACA_site3056 (dsDNA)
DNA 1: AGCTCTTGTCATTTTGCACACACACCCGTATAGGTT
DNA 2: AACCTATACGGGTGTGTGTGCAAAATGACAAGAGCT
B22: CACACA_site7288 (dsDNA)
DNA 1: AAAAAAAAAAAAAACACACACACACGCACATATACA
DNA 2: TGTATATGTGCGTGTGTGTGTGTTTTTTTTTTTTTT
B23: CACACA_site5152 (dsDNA)
DNA 1: GTATAATATGAACACACACACACACCCAAAAAAAAA
DNA 2: TTTTTTTTTGGGTGTGTGTGTGTGTTCATATTATAC
B24: CACACA_site6991 (dsDNA)
DNA 1: ACAGAAAAAAGACACACACACATAATATACATACAT
DNA 2: ATGTATGTATATTATGTGTGTGTGTCTTTTTTCTGT
B25: CACACA_site1447 (dsDNA)
DNA 1: AAAAAAAAAAAACACACACACACACCCACAAAATAT
DNA 2: ATATTTTGTGGGTGTGTGTGTGTGTTTTTTTTTTTT
B26: CACACA_site3497 (dsDNA)
DNA 1: AGCAAATACAAACACACACACACATATACATATATA
DNA 2: TATATATGTATATGTGTGTGTGTGTTTGTATTTGCT
B27: CACACA_site372 (dsDNA)
DNA 1: AAGCATACATCAAGCACACACACACCCACACCCACA
DNA 2: TGTGGGTGTGGGTGTGTGTGTGCTTGATGTATGCTT
B28: CACACA_site118 (dsDNA)
DNA 1: ATATATATATATTACACACACACAAAAAAAATAAAG
DNA 2: CTTTATTTTTTTTGTGTGTGTGTAATATATATATAT
B29: CACACA_site1585 (dsDNA)
DNA 1: AAAATAAAAAAAAACACACACATACAAGCATATATA
DNA 2: TATATATGCTTGTATGTGTGTGTTTTTTTTTATTTT
B30: CACACA_site6551 (dsDNA)
DNA 1: ATAAAAAGGAGACACACACACACACGCATATTTATA
DNA 2: TATAAATATGCGTGTGTGTGTGTGTCTCCTTTTTAT
B31: CACACA_site904 (dsDNA)
DNA 1: B30 DNA 1 with G11A, G26C, T32A
DNA 2: B30 DNA 2 with A5T, C11G, C26T
B32: CACACA_site7659 (dsDNA)
DNA 1: AGAATAAAAAGGAACACACACACACGCATATAAATA
DNA 2: TATTTATATGCGTGTGTGTGTGTTCCTTTTTATTCT
B33: CACACA_site8823 (dsDNA)
DNA 1: TAATTATGCCAACACACACACACACCCAACTAAAAA
DNA 2: TTTTTAGTTGGGTGTGTGTGTGTGTTGGCATAATTA
B34: CACACA_site903 (dsDNA)
DNA 1: CCATAAAAAGGATACACACACACACCCACATATATA
DNA 2: TATATATGTGGGTGTGTGTGTGTATCCTTTTTATGG
B35: CACACA_site6301 (dsDNA)
DNA 1: CACACGCACAGACACACACACACACGGATATAAATA
DNA 2: TATTTATATCCGTGTGTGTGTGTGTCTGTGCGTGTG
B36: CACACA_site4398 (dsDNA)
DNA 1: AGTATACTCAAACACACACACACAAAAAAAAAAAAA
DNA 2: TTTTTTTTTTTTTGTGTGTGTGTGTTTGAGTATACT
B37: CACACA_site6093 (dsDNA)
DNA 1: TATATAAATGGACACACACACACCTTATAATTATTA
DNA 2: TAATAATTATAAGGTGTGTGTGTGTCCATTTATATA
B38: CACACA_site803 (dsDNA)
DNA 1: AAAAAAAACAAATACACACGCACACCGAAAAAAAAA
DNA 2: TTTTTTTTTCGGTGTGCGTGTGTATTTGTTTTTTTT
B39: CACACA_site8113 (dsDNA)
DNA 1: CACGCATACAGACACACACACACACCGATATATATA
DNA 2: TATATATATCGGTGTGTGTGTGTGTCTGTATGCGTG
B40: CACACA_site6495 (dsDNA)
DNA 1: TTAAACTTGAGACACACACACACACGGATATAAAAA
DNA 2: TTTTTATATCCGTGTGTGTGTGTGTCTCAAGTTTAA
B41: CACACA_site758 (dsDNA)
DNA 1: B40 DNA 1 with G11A, G26C, G27C
DNA 2: B40 DNA 2 with C10G, C11G, C26T
B42: CACACA_site1505 (dsDNA)
DNA 1: TATATATATATATACACACACACAAAAAAAAAAAAA
DNA 2: TTTTTTTTTTTTTGTGTGTGTGTATATATATATATA
B43: CACACA_site6216 (dsDNA)
DNA 1: AAAAAAAAAAGACACACACACACACGGAGATATATA
DNA 2: TATATATCTCCGTGTGTGTGTGTGTCTTTTTTTTTT
B44: CACACA_site4551 (dsDNA)
DNA 1: AAAAAAAAAAAACACACACACACACTAGTACATACA
DNA 2: TGTATGTACTAGTGTGTGTGTGTGTTTTTTTTTTTT

The binders below were run against T1, AP2-HC D1 (assay: gcPBM; about 25 ug protein; PBS, 1% milk, 0.2 mg/ml BSA, salmon testes DNA, 0.03% Triton X-100). Conditions: tags: N-terminal GST (pGEX-4T-1), kept; label: surface-attached array probe.

Binder	binding signal
B1	11.8 ln median PBM intensity, better of two orientations
B2	11.8 ln median PBM intensity, better of two orientations
B3	11 ln median PBM intensity, better of two orientations
B4	11.8 ln median PBM intensity, better of two orientations
B5	11.8 ln median PBM intensity, better of two orientations
B6	11.9 ln median PBM intensity, better of two orientations
B7	11.9 ln median PBM intensity, better of two orientations
B8	11.7 ln median PBM intensity, better of two orientations
B9	11.7 ln median PBM intensity, better of two orientations
B10	11.8 ln median PBM intensity, better of two orientations
B11	11.7 ln median PBM intensity, better of two orientations
B12	11.3 ln median PBM intensity, better of two orientations
B13	11.7 ln median PBM intensity, better of two orientations
B14	11.8 ln median PBM intensity, better of two orientations
B15	10.9 ln median PBM intensity, better of two orientations
B16	11.9 ln median PBM intensity, better of two orientations
B17	11.8 ln median PBM intensity, better of two orientations
B18	11.8 ln median PBM intensity, better of two orientations
B19	11.5 ln median PBM intensity, better of two orientations
B20	11.7 ln median PBM intensity, better of two orientations
B21	11 ln median PBM intensity, better of two orientations
B22	11.9 ln median PBM intensity, better of two orientations

Binder	binding signal
B23	11.9 ln median PBM intensity, better of two orientations
B24	11.8 ln median PBM intensity, better of two orientations
B25	11.7 ln median PBM intensity, better of two orientations
B26	11.7 ln median PBM intensity, better of two orientations
B27	11.9 ln median PBM intensity, better of two orientations
B28	11.7 ln median PBM intensity, better of two orientations
B29	11.2 ln median PBM intensity, better of two orientations
B30	12 ln median PBM intensity, better of two orientations
B31	11.9 ln median PBM intensity, better of two orientations
B32	11.7 ln median PBM intensity, better of two orientations
B33	10.8 ln median PBM intensity, better of two orientations
B34	11.9 ln median PBM intensity, better of two orientations
B35	11.7 ln median PBM intensity, better of two orientations
B36	11.8 ln median PBM intensity, better of two orientations
B37	11.9 ln median PBM intensity, better of two orientations
B38	10.9 ln median PBM intensity, better of two orientations
B39	11.1 ln median PBM intensity, better of two orientations
B40	11.8 ln median PBM intensity, better of two orientations
B41	11.7 ln median PBM intensity, better of two orientations
B42	11.3 ln median PBM intensity, better of two orientations
B43	11.7 ln median PBM intensity, better of two orientations
B44	11.8 ln median PBM intensity, better of two orientations
